# Source: CN112125972A (SINOCELLTECH LTD, dated 2020)
# T1: HPV33 VLP (Human papillomavirus type 33, UniProt P06416 1-499)
# T1 construct: also called HPV33完整VLP蛋白
# T1 sequence: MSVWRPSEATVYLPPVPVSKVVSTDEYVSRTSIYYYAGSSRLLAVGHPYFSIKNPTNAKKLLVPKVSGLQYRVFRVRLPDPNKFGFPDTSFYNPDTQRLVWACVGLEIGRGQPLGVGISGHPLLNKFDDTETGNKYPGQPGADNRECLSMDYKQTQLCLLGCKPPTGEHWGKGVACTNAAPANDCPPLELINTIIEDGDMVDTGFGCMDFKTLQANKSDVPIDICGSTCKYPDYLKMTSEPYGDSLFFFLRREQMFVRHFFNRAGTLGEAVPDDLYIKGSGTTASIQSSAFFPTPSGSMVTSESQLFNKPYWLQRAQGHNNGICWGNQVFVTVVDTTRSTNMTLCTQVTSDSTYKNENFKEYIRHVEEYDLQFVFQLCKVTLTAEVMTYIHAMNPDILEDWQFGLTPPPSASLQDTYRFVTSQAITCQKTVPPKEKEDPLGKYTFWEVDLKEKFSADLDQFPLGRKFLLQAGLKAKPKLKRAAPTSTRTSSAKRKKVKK
# T2: HPV45 VLP (Human papillomavirus type 45, UniProt P36741 27-539)
# T2 construct: also called HPV45完整VLP蛋白
# T2 sequence: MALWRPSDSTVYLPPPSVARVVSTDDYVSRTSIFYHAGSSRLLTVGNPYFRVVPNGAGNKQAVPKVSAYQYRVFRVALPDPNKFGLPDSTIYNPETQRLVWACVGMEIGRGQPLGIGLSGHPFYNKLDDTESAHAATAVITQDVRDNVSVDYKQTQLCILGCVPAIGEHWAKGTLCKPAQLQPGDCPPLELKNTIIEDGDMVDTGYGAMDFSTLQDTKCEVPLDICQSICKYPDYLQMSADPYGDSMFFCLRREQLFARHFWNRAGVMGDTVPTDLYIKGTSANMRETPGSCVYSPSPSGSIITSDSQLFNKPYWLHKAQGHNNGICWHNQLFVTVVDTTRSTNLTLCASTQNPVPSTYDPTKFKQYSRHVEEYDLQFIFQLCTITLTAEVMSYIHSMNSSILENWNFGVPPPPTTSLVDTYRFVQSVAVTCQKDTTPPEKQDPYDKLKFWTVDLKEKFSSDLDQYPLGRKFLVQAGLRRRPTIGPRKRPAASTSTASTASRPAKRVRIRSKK
# T3: HPV31 VLP (Human papillomavirus type 31, UniProt P17388 1-504)
# T3 construct: also called HPV31完整VLP蛋白
# T3 sequence: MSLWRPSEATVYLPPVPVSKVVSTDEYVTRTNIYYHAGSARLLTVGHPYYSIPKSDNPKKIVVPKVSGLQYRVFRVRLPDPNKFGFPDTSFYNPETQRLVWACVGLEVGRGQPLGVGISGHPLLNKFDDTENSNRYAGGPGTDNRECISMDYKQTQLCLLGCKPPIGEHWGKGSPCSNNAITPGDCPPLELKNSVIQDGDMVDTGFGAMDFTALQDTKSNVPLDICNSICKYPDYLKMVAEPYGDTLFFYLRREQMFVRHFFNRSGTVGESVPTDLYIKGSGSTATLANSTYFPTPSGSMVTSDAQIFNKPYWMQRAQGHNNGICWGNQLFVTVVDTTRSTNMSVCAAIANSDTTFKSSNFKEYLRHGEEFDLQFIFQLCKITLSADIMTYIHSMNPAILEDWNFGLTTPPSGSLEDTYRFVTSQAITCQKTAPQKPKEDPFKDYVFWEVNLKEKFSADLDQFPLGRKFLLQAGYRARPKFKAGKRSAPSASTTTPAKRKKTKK
# What was measured:
# Assay in all cases: double-antibody sandwich ELISA, R001 as capture and HRP-R001 as detection, mixture of HPV types
# HPV33 VLP = molecular target: T1, HPV33 VLP
# HPV45 VLP = molecular target: T2, HPV45 VLP
# HPV31 VLP = molecular target: T3, HPV31 VLP
binder,measurement,setting,value
"HPV 16 R001 (antibody, V domains shown, An HRP-labelled form served as detection antibody in the sandwich ELISA; also called HPV16.001; 单克隆抗体HPV 16 R001) VH: QSVKESEGRLVTPGTPLTLTCTASGFTMSRYHMTWVRQAPGKGLEWIGIIYARNSDTYYANWAKGRFTISKTSTTVDLKITSPTIEDTATYFCARVDSDSSGAFDRLDLWGQGTLVTVSS VL: DPMLTQTAASVEVAVGGTVTIKCQASQSIGGYLSWYQQKPGQRPKLLIYRASTLASGVPSRFKGSGSGTEYTLTFSGVECADAAAYYCQQGYTSSDINNAFGGGTEVVVK",binding result,HPV33 VLP,no binding (tested: 50ng/mL，25ng/mL，12.5ng/mL)
same,binding result,HPV45 VLP,no binding (tested: 50ng/mL，25ng/mL，12.5ng/mL)
same,binding result,HPV31 VLP,no binding (tested: 50ng/mL，25ng/mL，12.5ng/mL)
